Assay results reported in patent US20210009671A1 (AstraZeneca / MedImmune, published 2021).

Legend:
[1] = molecular target: Recombinant mouse NGF (R&D Systems) (mouse, UniProt P01139 122-241); test: cell-based or functional assay
[2] = molecular target: Recombinant human NGF (Sigma) (human, UniProt P01138 122-241, limits assumed); test: cell-based or functional assay
Recombinant human NGF (Sigma), sequence (P01138 122-241 limits assumed): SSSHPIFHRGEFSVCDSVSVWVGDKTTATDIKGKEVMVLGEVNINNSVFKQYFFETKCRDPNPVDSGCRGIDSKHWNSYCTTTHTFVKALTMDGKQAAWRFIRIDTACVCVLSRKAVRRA

Recombinant mouse NGF (R&D Systems), sequence (P01139 122-241 limits assumed): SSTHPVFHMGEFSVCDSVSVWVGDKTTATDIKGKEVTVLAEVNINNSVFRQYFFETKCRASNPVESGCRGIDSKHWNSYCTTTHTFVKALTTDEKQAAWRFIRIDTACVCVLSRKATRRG

B1: MEDI-578 IgG1 TM YTE (antibody, V domains shown)
VH: QVQLVQSGAEVKKPGSSVKVSCKASGGTFSTYGISWVRQAPGQGLEWMGGIIPIFDTGNSAQSFQGRVTITADESTSTAYMELSSLRSEDTAVYYCARSSRIYDLNPSLTAYYDMDVWGQGTMVTVSS
VL: QSVLTQPPSVSAAPGQKVTISCSGSSSNIGNNYVSWYQQLPGTAPKLLIYDNNKRPSGIPDRFSGSKSGTSATLGITGLQTGDEADYYCGTWDSSLSAWVFGGGTKLTVL
[1]
  IC50 (read off the curve), murine NGF-induced TF-1 proliferation: ~0.3 nM
[2]
  IC50 (read off the curve), human NGF-induced TF-1 proliferation: ~0.7 nM
